Experimental data: US10064926B2, “Peptides and combination of peptides for use in immunotherapy against hepatocellular carcinoma (HCC) and other cancers” (Immatics biotechnologies GmbH, priority 2014, dated 2018)

Biological target: HLA-A*02 (Homo sapiens, UniProt P04439, D140Y/D185E/D98H/E176V/E277Q/G131W/G231S/I119V/I121R/I166T/I218V/N151K/N90K/P208A/P217A/Q86G/Q94H/R138H/R169H)
Assay: UV-ligand exchange / peptide binding to MHC class I (beta2m ELISA)
Conditions: peptide exchange yield
From the text: Candidate peptides for T cell based therapies according to the present invention were further tested for their MHC binding capacity (affinity). The individual peptide-MHC complexes were produced by UV-ligand exchange, where a UV-sensitive peptide is cleaved upon UV-irradiation, and exchanged with the peptide of interest as analyzed. Only peptide candidates that can effectively bind and stabilize the peptide-receptive MHC molecules prevent dissociation of the MHC complexes. To determine the yield of the exchange reaction, an ELISA was performed based on the detection of the light chain (β2m) of stabilized MHC complexes. The assay was performed as generally described in Rodenko et al. (Rodenko B, Toebes M, Hadrup S R, van Esch W J, Molenaar A M, Schumacher T N, Ovaa H. Generation of peptide-MHC class I complexes through UV-mediated ligand exchange. Nat Protoc. 2006; 1(3):1120-32).
96 well MAXISorp plates (NUNC) were coated over night with 2 ug/ml streptavidin in PBS at room temperature, washed 4× and blocked for 1 h at 37° C. in 2% BSA containing blocking buffer. Refolded HLA-A*0201/MLA-001 monomers served as standards, covering the range of 15-500 ng/ml. Peptide-MHC monomers of the UV-exchange reaction were diluted 100 fold in blocking buffer. Samples were incubated for 1 h at 37° C., washed four times, incubated with 2 ug/ml HRP conjugated anti-β2m for 1 h at 37° C., washed again and detected with TMB solution that is stopped with […]. Absorption was measured at 450 nm. Candidate peptides that show a high exchange yield (preferably higher than 50%, most preferred higher than 75%) are generally preferred for a generation and production of antibodies or fragments thereof, and/or T cell receptors or fragments thereof, as they show sufficient avidity to the MHC molecules and prevent dissociation of the MHC complexes.

[1] = Table 10A, UV-ligand exchange, β2m ELISA

Peptide exchange (MHC class I binding score) (Table 10B, HLA-A*02 peptides) | Peptide exchange (MHC class I binding score) [1] | Substance
“+++” (≥50 = +++) |  | 246 (KLISSYYNV; listed as Homo sapiens) [compound 246]
“+++” (≥50 = +++) |  | 252 (RTIEYLEEV; listed as Homo sapiens) [compound 252]
“++++” (≥75% = ++++) | ++++ (>=75% = ++++) | 5 (ALVEQGFTV; listed as Homo sapiens) [compound 5]
“++++” (≥75% = ++++) |  | 83 (QLHDFVMSL; listed as Homo sapiens) [compound 83]
“+++” (≥50 = +++) |  | 123 (YLWDLDHGFAGV; listed as Homo sapiens) [compound 123]
“+++” (≥50 = +++) |  | 283 (ILSGIGVSQV; listed as Homo sapiens) [compound 283]
“+++” (≥50 = +++) |  | 57 (HLTEAIQYV; listed as Homo sapiens) [compound 57]
“++” (≥20% = ++) |  | 68 (KLLAATVLLL; listed as Homo sapiens) [compound 68]
“++++” (≥75% = ++++) |  | 245 (KLGAVFNQV; listed as Homo sapiens) [compound 245]
“+++” (≥50 = +++) |  | 109 (TLYALSHAV; listed as Homo sapiens) [compound 109]
“+++” (≥50 = +++) |  | 104 (SVWFGPKEV; listed as Homo sapiens) [compound 104]
“++++” (≥75% = ++++) |  | 234 (YLEPYLKEV; listed as Homo sapiens) [compound 234]
“++++” (≥75% = ++++) |  | 130 (ALDAGAVYTL; listed as Homo sapiens) [compound 130]
“+++” (≥50 = +++) |  | 87 (RLFEENDVNL; listed as Homo sapiens) [compound 87]
“+++” (≥50 = +++) |  | 25 (SLDGKAALTEL; listed as Homo sapiens) [compound 25]
“+++” (≥50 = +++) |  | 254 (RVQEAIAEV; listed as Homo sapiens) [compound 254]
“+++” (≥50 = +++) |  | 66 (KLHEEIDRV; listed as Homo sapiens) [compound 66]
“+++” (≥50 = +++) |  | 65 (KLFSGDELLEV; listed as Homo sapiens) [compound 65]
“++++” (≥75% = ++++) |  | 61 (KIADFELPTI; listed as Homo sapiens) [compound 61]
“++++” (≥75% = ++++) |  | 276 (ALLEADVNIKL; listed as Homo sapiens) [compound 276]
“+++” (≥50 = +++) |  | 119 (YLDKNLTVSV; listed as Homo sapiens) [compound 119]
“++++” (≥75% = ++++) |  | 244 (KIAELLENV; listed as Homo sapiens) [compound 244]
“+++” (≥50 = +++) |  | 152 (KLDNNLDSV; listed as Homo sapiens) [compound 152]
“+++” (≥50 = +++) |  | 258 (SLMGPVVHEV; listed as Homo sapiens) [compound 258]
“++++” (≥75% = ++++) |  | 302 (KIQEILTQV; listed as Homo sapiens) [compound 302]
“+++” (≥50 = +++) |  | 174 (TLAELGAVQV; listed as Homo sapiens) [compound 174]
“+++” (≥50 = +++) |  | 23 (RLYDPASGTISL; listed as Homo sapiens) [compound 23]

Peptide exchange (MHC class I binding score) (Table 10B, HLA-A*02 peptides) | Peptide exchange (MHC class I binding score) [1] | Substance
“+++” (≥50 = +++) |  | 9 (ALANQKLYSV; listed as Homo sapiens) [compound 9]
“++++” (≥75% = ++++) |  | 141 (AMGEKSFSV; listed as Homo sapiens) [compound 141]
“+++” (≥50 = +++) |  | 129 (SQADVIPAV; listed as Homo sapiens) [compound 129]
“+++” (≥50 = +++) |  | 36 (ILNVDGLIGV; listed as Homo sapiens) [compound 36]
“+++” (≥50 = +++) |  | 103 (SMGDHLWVA; listed as Homo sapiens) [compound 103]
“+++” (≥50 = +++) |  | 74 (KLYDLELIV; listed as Homo sapiens) [compound 74]
“++++” (≥75% = ++++) | ++++ (>=75% = ++++) | 13 (GLIDTETAMKAV; listed as Homo sapiens) [compound 13]
“+++” (≥50 = +++) |  | 37 (LLLPLLPPLSP; listed as Homo sapiens) [compound 37]
“++” (≥20% = ++) |  | 146 (FLWTEQAHTV; listed as Homo sapiens) [compound 146]
“+++” (≥50 = +++) |  | 132 (ALHEEVVGV; listed as Homo sapiens) [compound 132]
“+++” (≥50 = +++) |  | 26 (SLLHTIYEV; listed as Homo sapiens) [compound 26]
“+++” (≥50 = +++) |  | 35 (SLQESILAQV; listed as Homo sapiens) [compound 35]
“+++” (≥50 = +++) |  | 59 (ILADTFIGV; listed as Homo sapiens) [compound 59]
“+++” (≥50 = +++) |  | 29 (YIQDEINTI; listed as Homo sapiens) [compound 29]
“+++” (≥50 = +++) |  | 34 (SLAEGTATV; listed as Homo sapiens) [compound 34]
“+++” (≥50 = +++) |  | 72 (KLSEAVTSV; listed as Homo sapiens) [compound 72]
“++++” (≥75% = ++++) |  | 156 (LLFPHPVNQV; listed as Homo sapiens) [compound 156]
“++++” (≥75% = ++++) |  | 149 (GLLSGLDIMEV; listed as Homo sapiens) [compound 149]
“++” (≥20% = ++) |  | 50 (FTIPKLYQL; listed as Homo sapiens) [compound 50]
“++++” (≥75% = ++++) |  | 128 (GLAFSLNGV; listed as Homo sapiens) [compound 128]
“+++” (≥50 = +++) |  | 163 (RLTESVLYL; listed as Homo sapiens) [compound 163]
“+++” (≥50 = +++) |  | 177 (VLDEPYEKV; listed as Homo sapiens) [compound 177]
“+++” (≥50 = +++) |  | 133 (ALLEMDARL; listed as Homo sapiens) [compound 133]
“+++” (≥50 = +++) |  | 17 (RVASPTSGV; listed as Homo sapiens) [compound 17]
“+++” (≥50 = +++) |  | 39 (ALDPKANFST; listed as Homo sapiens) [compound 39]
“++++” (≥75% = ++++) |  | 137 (ALPTVLVGV; listed as Homo sapiens) [compound 137]
